Measurements: patent US6673770B1, “Peptides for the treatment, prophylaxis, diagnosis and monitoring of autoimmune diseases” (Upither B.V., priority 1998, dated 2004)

Biological target: MHC class II RT1.B^L (Lewis rat), isolated molecules (rat (Lewis))

mycobacterial hsp65 180-188 peptide …
IC50: 32 to 64 µM
